Experimental data reported in the supplement of paper PMC11865577.

How the values were obtained:
Assay in all cases: pull-down binding Z-score (relative to library population); higher = stronger binding
[1] = tested on: TO-3-N3-2 (biotin conjugate); settings: RNA library: Library-2
Procedure, shortened: (§1)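 Biotin-conjugated small molecule (100 pmol) on streptavidin beads was incubated with 1 μg of heat-folded Cy5- or Cy3-end-labelled RNA library in phosphate/NaCl/KCl buffer at 25 °C for 60 min. Following three washes, RNA was eluted with hot SDS and hybridised at 55.5 °C for 20 h to a DNA barcode microarray. The binding value is a Z-score computed from the library mean and standard deviation, after subtraction of beads without compound and averaging of barcoded replicate probes with the highest and lowest excluded.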

[2] = tested on: TO-3-N3 (biotin conjugate); settings: RNA library: Library-2
Procedure, shortened: as §1

[3] = tested on: TO-N3-2 (biotin conjugate); settings: RNA library: Library-2
Procedure, shortened: as §1

TO-N3 (biotin conjugate) = settings: RNA library: Library-2
Procedure, shortened: as §1

[4] = tested on: G-clamp-N3 (biotin conjugate); settings: RNA library: Library-1 (pre-miRNA loops + repeats)
Procedure, shortened: as §1

Sequence | pull-down binding Z-score [1] | pull-down binding Z-score [2] | pull-down binding Z-score [3] | pull-down binding Z-score (TO-N3 (biotin conjugate)) | pull-down binding Z-score [4]
AGAUAUAUAUAUACCUCAUAUGUAUAUGGUAUAC [hsa-mir-4777] | -0.53 | -1.2 | -0.944 | -1.37 | -1.5
AGAUCACUUUUCUGCACUGGACAGUGAUCU [hsa-mir-3686] | -0.462 | -0.65 | -0.833 | -0.904 | -0.182
AGAUCCCCUGUUAGAGACGGGCC [hsa-mir-6840] | 0.351 | 0.114 | 0.991 | 0.562 | -1.25
AGAUCCUGUCUUUCGUAAUCAGCAGCU [hsa-mir-222] | 0.00116 | 0.279 | 0.228 | 0.344 | -0.246
AGAUCUAUGUCAUAUAUACAGAUAU [hsa-mir-3924] | 0.268 | 0.902 | -0.356 | 0.742 | -0.51
AGAUCUGUCUCUGAUUGUUUCCAAGAUCU [hsa-mir-6888] | 0.0544 | 0.132 | 0.0817 | 0.136 | -0.781
AGAUGAAAUGCCUUUGAUUU [hsa-mir-3658] | -0.388 | -0.497 | -0.505 | -0.715 | -1.49
AGAUGAGGGUGUCGGAUCAACU [hsa-mir-193a] | 0.248 | 0.135 | 0.801 | 0.579 | 1.51
AGAUGAGUUUAUGUUUUAUCCAACU [hsa-mir-193b] | -0.228 | -0.608 | -0.135 | -0.416 | -1.8
AGAUGUGUUUCCAUUCCACUAUCAUAAU [hsa-mir-365a] | -0.128 | -0.141 | -0.292 | -0.0846 | -0.718
AGCAAGGUGCGUCGUAUCUUGCU [hsa-mir-4804] | -0.581 | -0.499 | -0.798 | -0.702 | 0.816
AGCACUUUCUGUUGUCUGAAAGAAAAGAAAGUGCU [hsa-mir-516a-1_516a-2] | 0.0524 | 0.399 | -0.0183 | 0.686 | 1.47
AGCACUUUCUGUUUUGUGAAAGAAAAGAAAGUGCU [hsa-mir-516b-1] | -0.64 | -0.893 | -1.2 | -1.32 | -0.472
AGCACUUUGUGUUUUGUGAAAGAAAGUGCU [hsa-mir-516b-2] | -0.0767 | -0.647 | -0.576 | -0.882 | 2.82
AGCAGUACCAGACGGUUCUGUGG [hsa-mir-3198-1] | -0.0913 | -0.321 | 0.525 | 0.0664 | -0.487
AGCAGUACCAGAUGGUUCUGUGG [hsa-mir-3198-2] | -0.262 | -0.0816 | -0.167 | -0.0604 | -1.54
AGCAUCUGAAUGGGUACAGUUGUUGU [hsa-mir-6818] | -0.0469 | 0.0263 | -0.225 | 0.0834 | -0.405
AGCAUGCACUUAAUGUGGGUGUAUGU [hsa-mir-668] | -0.205 | 0.334 | -0.105 | 0.184 | 0.305
AGCCAAAAUCACCAGGGA [hsa-mir-4534] | 0.118 | -0.0499 | 0.563 | 0.259 | 0.0802
AGCCACUGCGGUCGACCAUGACCUGGA [hsa-mir-619] | 0.0618 | 0.401 | 0.721 | 0.578 | -0.783
AGCCCUGGGCUCCUCAGCAAACCUACUGGAU [hsa-mir-3174] | 0.3 | 0.494 | 0.975 | 0.857 | -1.41
AGCCCUGUUGUUGUAAGAUAGUGU [hsa-mir-550a-1] | -0.124 | -0.325 | 0.346 | -0.00359 | -0.249
AGCCCUGUUGUUGUCAGAUAGUGU [hsa-mir-550a-2] | 0.21 | 0.198 | 0.179 | 0.216 | -0.331
AGCCUCCAAACCUGUAGACAGGGUCAUGCAGUACUAGGGGCGAG [hsa-mir-4478] | 0.175 | -0.0187 | 0.966 | 0.546 | -0.233
AGCCUUCUAUUAUGCCCAGACAGGGCCACCAGAGGGCU [hsa-mir-4448] | -0.619 | -0.471 | -0.254 | -0.746 | -0.731

Sequence | pull-down binding Z-score [1] | pull-down binding Z-score [2] | pull-down binding Z-score [3] | pull-down binding Z-score (TO-N3 (biotin conjugate)) | pull-down binding Z-score [4]
AGCGCGAAAGU [hsa-mir-1539] | 0.0743 | -0.0926 | 0.55 | 0.054 | 0.0302
AGCGCGGCGACCGUAACUCCU [hsa-mir-1237] | 0.313 | 0.152 | 1.65 | 0.724 | -0.629
AGCUGGCUGAAGGGCAGAAGGGAACUGUCCUUCAGCCAGAG [hsa-mir-4487] | -0.156 | -0.276 | -0.122 | -0.243 | -0.139
AGCUGGGGCCGGGU [hsa-mir-4281] | 0.821 | 1.37 | 1.27 | 1.63 | 0.118
AGCUGGGUGGAGGCAGAGCU [hsa-mir-4291] | 1.23 | 2.46 | 1.4 | 2.34 | 1.95
AGCUGUGAAAGUCCUAGCU [hsa-mir-1256] | 0.221 | 0.994 | 3.94 | 2.17 | 0.661
AGCUGUGUUUUCUGACUCAGUCAUAAU [hsa-mir-365b] | -0.263 | -0.26 | -0.505 | -0.26 | -0.674
AGCUGUUGAACUGGGAACCUGCU [hsa-mir-31] | -0.00735 | -0.162 | 0.794 | 0.368 | 0.781
AGCUGUUGGCCAUGGCGACAACACCU [hsa-mir-6742] | -0.322 | -0.508 | 0.561 | -0.246 | 0.213
AGCUUCUACGUCAUUCAGCACUUGCU [hsa-mir-5706] | -0.211 | -0.62 | -0.31 | -0.601 | -0.819
AGCUUCUUUAUAAGAAGAGGAAACU [hsa-mir-3923] | 0.00803 | 0.147 | -0.5 | -0.151 | -0.169
AGCUUUAUGUAUUCUGAAGUUAUUGAAAAUAAGAGCU [hsa-mir-3140] | -0.254 | -0.877 | -0.911 | -1.1 | -0.628
AGGACACAGGCUGGCACUGAGGUCCC [hsa-mir-6887] | -0.0807 | 0.0768 | 1.41 | 0.639 | -0.394
AGGACGGUGCGCCUUGUUUCCC [hsa-mir-3132] | -0.0152 | -0.376 | 0.529 | 0.0408 | -1.1
AGGAGAAGGUGAGACCAAUGUCCUGGGUGCCACUCCU [hsa-mir-6124] | -0.00463 | -0.524 | -0.139 | -0.503 | 0.515
AGGAGGGUCC [hsa-mir-3141] | 0.356 | 0.419 | 1.02 | 0.766 | -0.0548
AGGAGUUCACU [hsa-mir-1183] | -0.383 | -0.276 | 0.0749 | -0.253 | -0.952
AGGCAACAUGGCCGAGAGGCCGGGGCCU [hsa-mir-564] | -0.533 | -0.144 | 0.551 | -0.12 | 2.93
AGGCACAUAUGUGAACAUUGUACCA [hsa-mir-5707] | 0.00393 | 0.023 | -0.108 | 0.0876 | -0.48
AGGCAUGGGUGGCU [hsa-mir-8085] | 0.062 | 0.237 | 0.625 | 0.428 | 0.379
AGGCAUUAGGAUCCUUAUUCUUGCCU [hsa-mir-4788] | -0.442 | -0.238 | -0.364 | -0.559 | -0.175
AGGCCAUACGUGUUGGAGAUU [hsa-mir-4461] | 0.301 | 0.627 | 0.79 | 0.792 | 0.253
AGGCCGACGAGCAGCGCAUCCUCUUACCCGGCUA [hsa-mir-138-2] | 0.171 | 0.181 | 1.95 | 1.11 | -1.48
AGGCCGUUGCCAAUCAGAGAACGGCUA [hsa-mir-138-1] | 0.52 | 1.23 | 1.43 | 1.47 | -0.677
AGGCCUGAGUCUCUCUGCUGCAGAUGGGCUC [hsa-mir-422a] | -0.0262 | -0.112 | 1.29 | 0.668 | -0.38

Sequence | pull-down binding Z-score [1] | pull-down binding Z-score [2] | pull-down binding Z-score [3] | pull-down binding Z-score (TO-N3 (biotin conjugate)) | pull-down binding Z-score [4]
AGGCUCUGCAAGAUCAACCGAGCA [hsa-mir-330] | 0.141 | 0.196 | 0.739 | 0.492 | -0.474
AGGCUCUGGGUCCGGCUUACUCCCUAGCUUACUGUCCUCAGAACCC [hsa-mir-6071] | 0.226 | -0.173 | 0.924 | 0.311 | -0.386
AGGCUGGUCUCAAACUCCU [hsa-mir-5096] | -0.228 | -0.118 | 0.128 | -0.0712 | -0.82
AGGCUGUCUUCAUUCCCUCUUGACCACCC [hsa-mir-6795] | 0.213 | 1.19 | 0.709 | 1.29 | -1.03
AGGCUUGGCACUUGAGGGAAAGCCU [hsa-mir-8059] | 0.0114 | 0.451 | 0.469 | 0.646 | 2.67
AGGGACCCCCGGAGUCUGUCACGGUCUCA [hsa-mir-6784] | 0.215 | -0.0169 | 0.955 | 0.353 | -0.402
AGGGCAAGUCCAAAGGUAUACAGUUGGUCUGUUCA [hsa-mir-7107] | -0.208 | -0.459 | 0.381 | -0.107 | 1.04
AGGGCAGCUCCCAUGACUGCCUGACCGC [hsa-mir-6880] | 0.266 | 0.15 | 1.4 | 0.663 | -0.549
AGGGCAGGGGUGUGGCU [hsa-mir-4751] | 2.67 | 3.21 | 1.93 | 2.8 | 0.725
AGGGCCUUCUGAGCCCAGGUCCG [hsa-mir-6716] | 0.018 | 0.611 | 1.46 | 0.886 | 0.286
AGGGCUGGGAUUACUAAAGCCCU [hsa-mir-1266] | -0.105 | -0.0287 | -0.335 | -0.158 | 1.24
AGGGGACACGGGCAAAGACUUGGGGGUUCCUGGGACCCUCAGACGUGUGUCCUCU [hsa-mir-877] | 0.297 | 0.252 | 0.581 | 0.632 | 0.447
AGGGGUCAUAUCUCUUCUCAGGGAAAGCAGGAGCCCUUCAGCAGGGUCAGGGCCCCU [hsa-mir-6891] | 0.263 | 0.705 | 0.317 | 0.761 | 1.5
AGGGUGGAGCCCACUGUGGCUCCUGACUCAGCCCU [hsa-mir-6893] | 0.0411 | -0.0543 | 0.419 | -0.0778 | -0.967
AGGUAGUGAUAUGUGCAUCUACU [hsa-mir-17] | 0.142 | 0.0812 | 0.759 | 0.31 | -0.805
AGGUAGUGUGAUUACCCAACCUACU [hsa-mir-93] | -0.179 | -0.148 | 0.272 | 0.0315 | 0.373
AGGUAGUGUUUAGUUAUCUACU [hsa-mir-20a] | 0.257 | -0.264 | -0.218 | -0.285 | 1.28
AGGUCUCCUGGCAU [hsa-mir-4256] | -0.439 | -0.274 | -0.096 | -0.164 | -0.698
AGGUGCUAGGUCGGCCUCGGC [hsa-mir-5787] | 0.351 | 0.284 | 1.47 | 1.01 | 1.28
AGGUGGAAAGGGAGCAGGAGCAUCGUCUUUAAGAGGGUCAGGUACCUUUGCUCUUA [hsa-mir-6083] | 0.394 | -0.0151 | 1.33 | 0.724 | 0.244
AGGUUCUGCUGGCUGAGAACCU [hsa-mir-3667] | -0.106 | -0.215 | 0.149 | -0.17 | 2.19
AGGUUGGCUGGGCCAGGCCUGACCU [hsa-mir-4722] | -0.00273 | 0.0532 | 1.16 | 0.435 | 0.156
AGGUUUAUGACUGGGCAUUUCUCACCCAAUGCCCAAUAUUGAACUU [hsa-mir-4431] | -0.213 | -0.564 | -0.666 | -0.752 | -0.59
AGGUUUGUGUCCAAUACAGUCCACACCU [hsa-mir-3200] | -0.367 | -0.745 | -0.572 | -0.879 | -0.861
